The target in the experiment is His-DnaB helicase (E. coli, UniProt P0ACB0 1-471). Kind of experiment: pull-down.
Chain of His-DnaB helicase (P0ACB0 whole entry): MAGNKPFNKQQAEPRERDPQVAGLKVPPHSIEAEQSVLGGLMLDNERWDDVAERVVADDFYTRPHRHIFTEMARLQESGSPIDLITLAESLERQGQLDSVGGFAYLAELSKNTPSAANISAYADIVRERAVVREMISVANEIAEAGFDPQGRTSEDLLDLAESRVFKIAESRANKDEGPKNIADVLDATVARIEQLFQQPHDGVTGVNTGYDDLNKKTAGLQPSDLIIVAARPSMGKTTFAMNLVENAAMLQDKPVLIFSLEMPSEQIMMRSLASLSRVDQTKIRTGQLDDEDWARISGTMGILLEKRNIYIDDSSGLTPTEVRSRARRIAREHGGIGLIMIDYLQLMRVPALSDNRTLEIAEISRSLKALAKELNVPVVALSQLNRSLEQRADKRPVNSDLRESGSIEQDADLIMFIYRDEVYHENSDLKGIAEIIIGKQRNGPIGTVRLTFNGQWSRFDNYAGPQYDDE

B1: Escherichia coli DnaA, ATP-bound form (ATP–DnaA), wild type (natural protein, E. coli, UniProt P03004 1-467, looked up)
chain: MSLSLWQQCLARLQDELPATEFSMWIRPLQAELSDNTLALYAPNRFVLDWVRDKYLNNINGLLTSFCGADAPQLRFEVGTKPVTQTPQAAVTSNVAAPAQVAQTQPQRAAPSTRSGWDNVPAPAEPTYRSNVNVKHTFDNFVEGKSNQLARAAARQVADNPGGAYNPLFLYGGTGLGKTHLLHAVGNGIMARKPNAKVVYMHSERFVQDMVKALQNNAIEEFKRYYRSVDALLIDDIQFFANKERSQEEFFHTFNALLEGNQQIILTSDRYPKEINGVEDRLKSRFGWGLTVAIEPPELETRVAILMKKADENDIRLPGEVAFFIAKRLRSNVRELEGALNRVIANANFTGRAITIDFVREALRDLLALQEKLVTIDNIQKTVAEYYKIKVADLLSKRRSRSVARPRQMAMALAKELTNHSLPEIGDAFGGRDHTTVLHACRKIEQLREESHDIKEDFSNLIRTLSS
B1: the binding result is recorded as “binds”.

The record behind these values is PMC9198467 (The Journal of Biological Chemistry, 2022).
